± gives the standard deviation of the averaged measurements.
B1: library; a variant is named by its letters at N, in order (parent)
chain: GCUGUCACCGGUGCUUGGUACGUUAUAUUCAGCCGGUCUGAUGAGUCUNNNNNNAGACGAAACAGC

Legend:
[1] = variants of: B1; experiment: normalized RNA/DNA level without ligand (relative to sTRSVctl = 100) (log10 (% of sTRSVctl)); HEK293T overexpressing SLC46A1; higher = less ribozyme self-cleavage, higher mRNA level; conditions: without (6R,S)-folinic acid; ligand present: no
How it was run: (§1)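 Library plasmids carrying ribozyme switches linked to mCherry, or to eGFP in some ligand experiments, were transfected into HEK293T at 4 µg per 6-well well, with any ligand added 1 h earlier. Seventy-two hours on, total RNA was extracted with EDTA and reverse-transcribed, amplified, barcoded and sequenced. RNA level was RNA over DNA reads normalized to a spiked-in non-cleaving sequence or to the top sequences, then scaled and log-transformed. The top set was 25 sequences, the transform was ×100 and log10, and sequences needed ≥100 DNA reads.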

[2] = variants of: B1; experiment: normalized RNA/DNA level with ligand (relative to sTRSVctl = 100) (log10 (% of sTRSVctl)); HEK293T overexpressing SLC46A1; ligand concentration (+) RNA-Seq: 6 mM; higher = less ribozyme self-cleavage, higher mRNA level; conditions: with (6R,S)-folinic acid; ligand present: yes
How it was run: as §1

CUGACU
normalized RNA/DNA level without ligand (log10) [1]: 2.028 ± 0.004
normalized RNA/DNA level with ligand (log10) [2]: 2 ± 0.023

CUGACC
normalized RNA/DNA level without ligand (log10) [1]: 2.05 ± 0.017
normalized RNA/DNA level with ligand (log10) [2]: 2.01 ± 0.033

CUGACA
normalized RNA/DNA level without ligand (log10) [1]: 1.996 ± 0.01
normalized RNA/DNA level with ligand (log10) [2]: 2.03 ± 0.022

CUGACG
normalized RNA/DNA level without ligand (log10) [1]: 2 ± 0.006
normalized RNA/DNA level with ligand (log10) [2]: 2.046 ± 0.02

CUUAUA
normalized RNA/DNA level without ligand (log10) [1]: 1.961 ± 0.019
normalized RNA/DNA level with ligand (log10) [2]: 2 ± 0.029

UUGACC
normalized RNA/DNA level without ligand (log10) [1]: 2.04 ± 0.0038
normalized RNA/DNA level with ligand (log10) [2]: 2.04 ± 0.032

UUGACG
normalized RNA/DNA level without ligand (log10) [1]: 1.866 ± 0.0091
normalized RNA/DNA level with ligand (log10) [2]: 1.996 ± 0.019

UUGACU
normalized RNA/DNA level without ligand (log10) [1]: 2.0063 ± 0.0015
normalized RNA/DNA level with ligand (log10) [2]: 2.04 ± 0.053

UUGACA
normalized RNA/DNA level without ligand (log10) [1]: 1.956 ± 0.018
normalized RNA/DNA level with ligand (log10) [2]: 1.98 ± 0.021

GUGCGG
normalized RNA/DNA level without ligand (log10) [1]: 1.968 ± 0.014
normalized RNA/DNA level with ligand (log10) [2]: 2.0481 ± 0.00061

GUGCGC
normalized RNA/DNA level without ligand (log10) [1]: 1.965 ± 0.01
normalized RNA/DNA level with ligand (log10) [2]: 2.01 ± 0.057

AUGUCC
normalized RNA/DNA level without ligand (log10) [1]: 2.04 ± 0.026
normalized RNA/DNA level with ligand (log10) [2]: 2.0107 ± 0.0015

AUGUCG
normalized RNA/DNA level without ligand (log10) [1]: 1.93 ± 0.0088
normalized RNA/DNA level with ligand (log10) [2]: 1.99 ± 0.027

AUGUCA
normalized RNA/DNA level without ligand (log10) [1]: 1.979 ± 0.0033
normalized RNA/DNA level with ligand (log10) [2]: 2.01 ± 0.016

AUGUCU
normalized RNA/DNA level without ligand (log10) [1]: 1.993 ± 0.017
normalized RNA/DNA level with ligand (log10) [2]: 1.99 ± 0.02

UUCUUC
normalized RNA/DNA level without ligand (log10) [1]: 2.05 ± 0.028
normalized RNA/DNA level with ligand (log10) [2]: 1.996 ± 0.012

UUCUUU
normalized RNA/DNA level without ligand (log10) [1]: 2.047 ± 0.0094
normalized RNA/DNA level with ligand (log10) [2]: 2.04 ± 0.035

UUCUUG
normalized RNA/DNA level without ligand (log10) [1]: 1.914 ± 0.0095
normalized RNA/DNA level with ligand (log10) [2]: 2.02 ± 0.023

CUGGCC
normalized RNA/DNA level without ligand (log10) [1]: 2.079 ± 0.011
normalized RNA/DNA level with ligand (log10) [2]: 2.03 ± 0.032

CUGGCG
normalized RNA/DNA level without ligand (log10) [1]: 1.99 ± 0.026
normalized RNA/DNA level with ligand (log10) [2]: 2.03 ± 0.037

CUGGCA
normalized RNA/DNA level without ligand (log10) [1]: 1.999 ± 0.0069
normalized RNA/DNA level with ligand (log10) [2]: 1.98 ± 0.042

GUGGCG
normalized RNA/DNA level without ligand (log10) [1]: 1.993 ± 0.0028
normalized RNA/DNA level with ligand (log10) [2]: 2.015 ± 0.0038

GUGGCU
normalized RNA/DNA level without ligand (log10) [1]: 2.047 ± 0.0085
normalized RNA/DNA level with ligand (log10) [2]: 2.06 ± 0.028

CUGUCA
normalized RNA/DNA level without ligand (log10) [1]: 2.033 ± 0.011
normalized RNA/DNA level with ligand (log10) [2]: 2.07 ± 0.039

CUGUCU
normalized RNA/DNA level without ligand (log10) [1]: 2.037 ± 0.0082
normalized RNA/DNA level with ligand (log10) [2]: 2.04 ± 0.034

CUGUCC
normalized RNA/DNA level without ligand (log10) [1]: 2.059 ± 0.0043
normalized RNA/DNA level with ligand (log10) [2]: 2.043 ± 0.017

CUGUCG
normalized RNA/DNA level without ligand (log10) [1]: 2 ± 0.031
normalized RNA/DNA level with ligand (log10) [2]: 2.06 ± 0.065

CUGAUA
normalized RNA/DNA level without ligand (log10) [1]: 1.9701 ± 0.00086
normalized RNA/DNA level with ligand (log10) [2]: 2.02 ± 0.048

CUGAUC
normalized RNA/DNA level without ligand (log10) [1]: 2.0695 ± 0.0006
normalized RNA/DNA level with ligand (log10) [2]: 2.038 ± 0.013

CUGAUG
normalized RNA/DNA level without ligand (log10) [1]: 2.014 ± 0.013
normalized RNA/DNA level with ligand (log10) [2]: 2.013 ± 0.014

CUGAUU
normalized RNA/DNA level without ligand (log10) [1]: 2.015 ± 0.007
normalized RNA/DNA level with ligand (log10) [2]: 2.05 ± 0.052

UUGAUC
normalized RNA/DNA level without ligand (log10) [1]: 2.051 ± 0.0013
normalized RNA/DNA level with ligand (log10) [2]: 2.01 ± 0.022

UUGAUA
normalized RNA/DNA level without ligand (log10) [1]: 1.978 ± 0.0072
normalized RNA/DNA level with ligand (log10) [2]: 2.03 ± 0.029

UUGAUU
normalized RNA/DNA level without ligand (log10) [1]: 2.017 ± 0.012
normalized RNA/DNA level with ligand (log10) [2]: 2.027 ± 0.013

CUGUGG
normalized RNA/DNA level without ligand (log10) [1]: 1.96 ± 0.0026
normalized RNA/DNA level with ligand (log10) [2]: 2.059 ± 0.016

CUGUGU
normalized RNA/DNA level without ligand (log10) [1]: 1.997 ± 0.017
normalized RNA/DNA level with ligand (log10) [2]: 2.011 ± 0.004

CUGUGA
normalized RNA/DNA level without ligand (log10) [1]: 2.028 ± 0.0096
normalized RNA/DNA level with ligand (log10) [2]: 2.04 ± 0.035

CUGUGC
normalized RNA/DNA level without ligand (log10) [1]: 2.01 ± 0.05
normalized RNA/DNA level with ligand (log10) [2]: 2.02 ± 0.028

CUGCGC
normalized RNA/DNA level without ligand (log10) [1]: 2.06 ± 0.0038
normalized RNA/DNA level with ligand (log10) [2]: 2.009 ± 0.019

CUGCGA
normalized RNA/DNA level without ligand (log10) [1]: 2.053 ± 0.0059
normalized RNA/DNA level with ligand (log10) [2]: 2.06 ± 0.037

CUGCGG
normalized RNA/DNA level without ligand (log10) [1]: 2.052 ± 0.0072
normalized RNA/DNA level with ligand (log10) [2]: 2.066 ± 0.0066

CUGCGU
normalized RNA/DNA level without ligand (log10) [1]: 2.059 ± 0.011
normalized RNA/DNA level with ligand (log10) [2]: 2.06 ± 0.039

CUGGAG
normalized RNA/DNA level without ligand (log10) [1]: 1.883 ± 0.01
normalized RNA/DNA level with ligand (log10) [2]: 1.99 ± 0.029

CUGGAC
normalized RNA/DNA level without ligand (log10) [1]: 1.9905 ± 0.0006
normalized RNA/DNA level with ligand (log10) [2]: 2 ± 0.038

AUUAGC
normalized RNA/DNA level without ligand (log10) [1]: 1.987 ± 0.0093
normalized RNA/DNA level with ligand (log10) [2]: 2.021 ± 0.0097

AUUAGU
normalized RNA/DNA level without ligand (log10) [1]: 1.95 ± 0.028
normalized RNA/DNA level with ligand (log10) [2]: 2.01 ± 0.028

GUGGUA
normalized RNA/DNA level without ligand (log10) [1]: 1.913 ± 0.0048
normalized RNA/DNA level with ligand (log10) [2]: 1.97 ± 0.019

GUGGUC
normalized RNA/DNA level without ligand (log10) [1]: 2.02 ± 0.023
normalized RNA/DNA level with ligand (log10) [2]: 2 ± 0.029

GUGCUA
normalized RNA/DNA level without ligand (log10) [1]: 1.994 ± 0.0059
normalized RNA/DNA level with ligand (log10) [2]: 1.98 ± 0.04

GUGCUC
normalized RNA/DNA level without ligand (log10) [1]: 2.05 ± 0.032
normalized RNA/DNA level with ligand (log10) [2]: 2.01 ± 0.045

GUGCUU
normalized RNA/DNA level without ligand (log10) [1]: 2.037 ± 0.0067
normalized RNA/DNA level with ligand (log10) [2]: 2.039 ± 0.015

CUGGUC
normalized RNA/DNA level without ligand (log10) [1]: 2.057 ± 0.0038
normalized RNA/DNA level with ligand (log10) [2]: 2.04 ± 0.044

CUGGUG
normalized RNA/DNA level without ligand (log10) [1]: 1.982 ± 0.0025
normalized RNA/DNA level with ligand (log10) [2]: 2.04 ± 0.037

CUGGUA
normalized RNA/DNA level without ligand (log10) [1]: 1.95 ± 0.023
normalized RNA/DNA level with ligand (log10) [2]: 1.98 ± 0.034

CUGGUU
normalized RNA/DNA level without ligand (log10) [1]: 1.97 ± 0.04
normalized RNA/DNA level with ligand (log10) [2]: 1.99 ± 0.046

AUGGUC
normalized RNA/DNA level without ligand (log10) [1]: 2.055 ± 0.0035
normalized RNA/DNA level with ligand (log10) [2]: 2.04 ± 0.029

AUUAAC
normalized RNA/DNA level without ligand (log10) [1]: 2.011 ± 0.0026
normalized RNA/DNA level with ligand (log10) [2]: 2.03 ± 0.033

AUUAAU
normalized RNA/DNA level without ligand (log10) [1]: 1.9586 ± 0.0017
normalized RNA/DNA level with ligand (log10) [2]: 1.98 ± 0.033

Reference: the supplement of paper PMC6757056
